The text below walks through data of patent publication US20210340252A1 (WUXI BIOLOGICS IRELAND, published 2021).

The target of one experiment is T1, hTIM-3.ECD.MBPHis (human, UniProt Q8TDQ0 22-202).
T1 construct: extracellular domain; Made in Expi293 cells; also called human TIM-3.ECD.MBPAVIHIS; not shown: C-terminal MBP / AVI / 6xHis tag
Nature of the experiment: SPR Biacore 8K, antibody captured on anti-human IgG Fc CM5 chip, hTIM-3.ECD.MBPHis as analyte, 1:1 fit. A general note: Surface plasmon resonance follows binding to a sensor surface in real time, without labels.

A further experiment concerns the target T2, CynoTIM-3.ECD.Fc (cynomolgus monkey, UniProt A0A2K5U3G7 22-195).
T2 construct: extracellular domain; also called Cynomolgus TIM-3, hFc tag; not shown: Fc tag
T2 sequence: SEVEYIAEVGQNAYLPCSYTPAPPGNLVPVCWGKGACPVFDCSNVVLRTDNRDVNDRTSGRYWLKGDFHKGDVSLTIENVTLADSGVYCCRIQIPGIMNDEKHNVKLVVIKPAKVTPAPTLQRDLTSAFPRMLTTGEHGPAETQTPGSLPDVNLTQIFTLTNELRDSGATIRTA
Nature of the experiment: SPR Biacore 8K, cynoTIM-3.ECD.Fc immobilised on CM5 chip, antibody as analyte (avidity), 1:1 fit.

In the next experiment the target is T3, Human TIM-4, His tag (human, UniProt Q96H15 25-315, limits assumed).
T3 construct: Bought protein
T3 sequence (looked up): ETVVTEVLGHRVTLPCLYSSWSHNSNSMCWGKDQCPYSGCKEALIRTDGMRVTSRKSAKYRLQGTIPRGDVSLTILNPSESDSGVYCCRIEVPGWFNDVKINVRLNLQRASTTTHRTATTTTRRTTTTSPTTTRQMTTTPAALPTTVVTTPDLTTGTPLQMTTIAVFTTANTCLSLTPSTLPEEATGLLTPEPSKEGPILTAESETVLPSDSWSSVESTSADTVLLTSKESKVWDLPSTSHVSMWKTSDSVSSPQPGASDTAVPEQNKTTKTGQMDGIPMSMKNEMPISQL
Nature of the experiment: ELISA, plates coated with human TIM-4. Background: An ELISA detects its analyte on a solid surface through an enzyme-linked reagent.

Another experiment concerns the target T4, mFc-tagged human TIM-3 (human, UniProt Q8TDQ0 22-202, limits assumed).
T4 construct: the assay text only says mFc-tagged human TIM-3; also called hTIM-3.ECD.mFc; not shown: mouse Fc tag at the C-terminus
The experiment in a line: competition, flow cytometry: antibody pre-mixed with mFc-tagged human TIM-3, binding of TIM-3 to PtdSer on apoptotic Jurkat cells, PE anti-mouse IgG Fc; blockade of TIM-3 binding to PtdSer on apoptotic Jurkat cells. A general note: A flow cytometer gives signals particle by particle.

The target of the next experiment is T5, Human TIM-1, His tag (human, UniProt Q96D42 21-293, limits assumed).
T5 construct: Bought protein
T5 sequence (looked up): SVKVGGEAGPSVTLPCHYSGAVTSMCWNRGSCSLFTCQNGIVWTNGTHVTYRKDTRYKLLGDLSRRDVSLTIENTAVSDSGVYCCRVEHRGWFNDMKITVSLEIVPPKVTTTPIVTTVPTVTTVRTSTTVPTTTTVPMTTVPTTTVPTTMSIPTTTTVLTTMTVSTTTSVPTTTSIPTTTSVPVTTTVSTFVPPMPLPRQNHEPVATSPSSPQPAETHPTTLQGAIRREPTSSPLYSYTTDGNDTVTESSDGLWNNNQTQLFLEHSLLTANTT
The experiment in a line: ELISA, plates coated with human TIM-1.

Experiment [1] concerns the target T6, human TIM-3, full length, on cells (human, UniProt Q8TDQ0 22-301).
T6 construct: whole, on cells; also called hTIM-3; cell surface human TIM-3
The experiment in a line: FACS on PHA-activated human CD4+ T cells (natural TIM-3), detection with PE goat anti-human IgG Fc, MFI.

In experiment [2] the target is human TIM-3 protein (coated on ELISA plates) (human, UniProt Q8TDQ0 22-200, limits assumed). The experiment in a line: competition ELISA on plate-coated human TIM-3 against biotinylated WBP340-BMK8, detection with SA-HRP.
The target of experiment [3] is T7, cynomolgus monkey TIM-3, full length, on transfected cells (cynomolgus monkey, UniProt A0A2K5U3G7 22-294).
T7 construct: whole, on cells; cynoTIM-3-expressing transfectant cells; also called cynoTIM-3
T7 sequence: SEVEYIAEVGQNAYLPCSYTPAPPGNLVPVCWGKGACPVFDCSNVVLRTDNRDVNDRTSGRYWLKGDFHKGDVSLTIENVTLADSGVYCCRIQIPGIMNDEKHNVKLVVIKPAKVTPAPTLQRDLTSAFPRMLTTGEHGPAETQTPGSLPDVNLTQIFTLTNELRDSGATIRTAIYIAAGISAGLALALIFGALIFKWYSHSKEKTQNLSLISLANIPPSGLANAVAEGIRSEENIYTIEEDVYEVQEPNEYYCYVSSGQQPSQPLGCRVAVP
Nature of the experiment: flow cytometry on cynoTIM-3-expressing transfectant cells, PE goat anti-human IgG-Fc.

Experiment [4] concerns the target T6, human TIM-3, full length, on cells. Nature of the experiment: flow cytometry on hTIM-3-expressing transfectant cells, PE goat anti-human IgG-Fc.
Experiment [5] shares this target. The experiment in a line: FACS binding titration on human TIM-3 transfected cells after incubation of the antibody in human serum.

B1: W3405-2.61.21-uAb-hIgG4.SPK (V87E) (antibody, V domains shown)
VH: EVQLLEAGGGPVQPGGSLRLSCAAAGFTFSNYAMSWVRQAPGKGLEWVSSISDNGGTAYHADSVQGRFTISRDNSKSTLYLQMNSLRAEDTAVYYCAKDFGDSPGYWGQGTLVTVSS
VL: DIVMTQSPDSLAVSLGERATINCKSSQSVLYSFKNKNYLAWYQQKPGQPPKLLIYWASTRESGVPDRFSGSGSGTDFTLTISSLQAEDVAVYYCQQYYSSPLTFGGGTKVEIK
notes: Human IgG4 (S228P) heavy constant region and kappa light chain; also called mutant_3
As a reminder, the koff is the first-order rate constant of dissociation. For orientation: kon means a measure of how fast the partners come together. In the experiment with hTIM-3.ECD.MBPHis, B1 showed a Kd of 0.153 nM, a koff of 3.18e-05 s⁻¹ and a kon of 208000 M⁻¹ s⁻¹. Moreover, in the experiment with CynoTIM-3.ECD.Fc, the Kd is 0.00452 nM, the koff was determined as 7.49e-06 s⁻¹ and the on-rate constant (kon) amounted to 1.66e+06 M⁻¹ s⁻¹.

B2: W3405-2.61.21-uAb-p1-hIgG4.SPK (antibody, V domains shown)
VH: EVQLLEAGGGPVQPGGSLRLSCAAAGFTFSNYAMSWVRQAPGKGLEWVSSISDQGGTAYHADSVQGRFTISRDNSKSTLYLQMNSLRAEDTAVYYCAKDFGDSPGYWGQGTLVTVSS
VL: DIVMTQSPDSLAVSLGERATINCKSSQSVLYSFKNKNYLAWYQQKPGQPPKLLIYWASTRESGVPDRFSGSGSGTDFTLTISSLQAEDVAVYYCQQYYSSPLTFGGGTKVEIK
notes: Fully human antibody; Constant region of human IgG4 (S228P) heavy chain and human kappa light chain; also called W3405 lead antibody; p1 variant (N→Q)
Usually IC50 stands for the concentration at which inhibition is half-maximal. For orientation: EC50 means the midpoint of the concentration-response curve. By EC50 (read off the curve) is commonly meant the concentration needed to bring the measured effect to its halfway point. On to B2, for which the figures for the Kd with hTIM-3.ECD.MBPHis and with CynoTIM-3.ECD.Fc were 0.138 nM and 0.006 nM, respectively. The koff in the experiment with hTIM-3.ECD.MBPHis worked out at 3.2e-05 s⁻¹; with CynoTIM-3.ECD.Fc, 1.73e-05 s⁻¹. Also, the kon in the experiment with hTIM-3.ECD.MBPHis came out at 232000 M⁻¹ s⁻¹; in the experiment with CynoTIM-3.ECD.Fc, 2.89e+06 M⁻¹ s⁻¹. The binding result is “no binding” in the experiment with Human TIM-4, His tag and “no binding” in the experiment with Human TIM-1, His tag. The half-inhibitory concentration (IC50) in the experiment with mFc-tagged human TIM-3 came to 20 nM. Also, the figures for the concentration giving a half-maximal response (EC50) in experiment [1], in experiment [3] and in experiment [4] were 0.096 nM, 0.99 nM and 0.13 nM, respectively. Also, the “IC50 (read off the curve)” value in experiment [2] was ~0.8 nM. The “EC50 (read off the curve)” value in [5] was ~0.4 nM.
